From paper PMC8476643 (Nature Communications, 2021)

B1: 7D6 monoclonal antibody (antibody, V domains shown)
VH: EVQLQQSGAELVRPGASVKLSCTASGFNIKDTYIHWVKQRPEQGLEWIGRIDPGDGDTEYDPSFQGKATITADTSSNTAYLELSSLTSEDTAVYYCTRFYDYVDYGMDYWGQGTSVTVSS
VL: DIQMTQSPASLSASVGETVTITCRASGNIHNYLAWYQQKQGKSPQLLVYNAKTLADGVPSRFSGSGSGTQYSLKINSLQPEDFGSYYCQHFWSTPPWTFGGGTKLEVK
notes: also called mAb 7D6; source: mouse hybridoma, ascites, purified (protein A agarose); copies: 2 + 2
B2: 6D6 monoclonal antibody (antibody, V domains shown)
VH: EVQLQQSGAELVKPGASVKLSCTTSGFNIIDTYMHWVKQRPEEGLEWIGGIDPVNGNSEYDPKFQDKATITADTSSNTAYLHLSRLTSEDTAVYYCASAHYYGSSSSFPYWGQGTLVTVSA
VL: DIVMTQSQKFMSTSVGDRVSVTCKASQNVGTHVAWYQQKPGQSPKALIYSASYRYSGVPDRFTGSGVGTDFTLTITNVQSEDLAEYFCQQYNSYFTFGSGTKLEIK
notes: also called mAb 6D6; source: mouse hybridoma, ascites, purified (protein A agarose); copies: 2 + 2

Legend:
[1] = target: T1, SARS-CoV-2 receptor-binding domain (RBD) (SARS-CoV-2 Wuhan-Hu-1 (GenBank …, UniProt P0DTC2)); experiment: SPR; conditions: both partners purified
T1 construct: source: High Five cells (baculovirus, pAcgp67B), purified from the medium (Ni-sepharose)

[2] = target: T1, SARS-CoV-2 receptor-binding domain (RBD); experiment: SPR; conditions: both partners purified; remark: listed apart in the source
[3] = target: T2, SARS-CoV receptor-binding domain (RBD) (SARS-CoV (GenBank NC_004718.3), UniProt P59594); experiment: SPR; conditions: both partners purified
T2 construct: also called SARS-CoV RBD; source: High Five cells (baculovirus, pAcgp67B), purified from the medium (Ni-sepharose)

[4] = target: T1, SARS-CoV-2 receptor-binding domain (RBD); experiment: cell-based or functional assay
[5] = target: T2, SARS-CoV receptor-binding domain (RBD); experiment: SPR; conditions: both partners purified; remark: listed apart in the source

Binder	Kd [1] [pM]	Kd [2] [pM]	koff [2] [s⁻¹]	kon [2] [M⁻¹ s⁻¹]	Kd [3] [pM]	koff [3] [s⁻¹]	kon [3] [M⁻¹ s⁻¹]	Fig. S4: IC50 of neutralisation, LV-SARS-CoV-2 WT [4] [µg/mL]	Kd [5] [pM]
B1	2.65	< 10	1.1e-06	180000	30	1.7e-06	58500	5.98	
B2		10	1.5e-06	115000	370	6.3e-06	17000	10.9	3720
